Results: PMC8209050 (Nature Communications, 2021)

molecular target: T1, SARS-CoV-2 Spike receptor binding domain (RBD), wild type, His-tagged (SARS-CoV-2, UniProt P0DTC2); assay: not given; settings: not given

Binder | Kd [nM]
254 (antibody, V domains shown) VH: EVQLLESGGGLVQPGGSLRLSCAASGFTFSSSAMHWVRQAPGKGLEWVSAIGTGGDTYYADSVKGRFTISRDNSKNTLYLQMNSLRAEDTAVYYCAREGDGYNFYFDYWGQGTLVTVSS VL: DIQMTQSPSSLSASVGDRVTITCRASQGISSYLAWYQQKPGKAPKLLIYDASSLQIGVPSRFSGSGSGTDFTLTISSLQPEDFATYYCLQSYSTPPWTFGQGTKVEIK | 127
349 (antibody, V domains shown) VH: EVQLLESGGGLVQPGGSLRLSCAASGFTFSNYGMHWVRQAPGKGLEWVSGISSAGSITNYADSVKGRFTISRDNSKNTLYLQMNSLRAEDTAVYYCAGNHAGTTVTSEYFQHWGQGTLVTVSS VL: DIQMTQSPSSLSASVGDRVTITCRASQSISSWLAWYQQKPGKAPKLLIYDTSNLETGVPSRFSGSGSGTDFTLTISSLQPEDFATYYCQQSYTTPWTFGQGTRLEIK | 74
160 (antibody, V domains shown) VH: QVQLVQSGAEVKKPGASVKVSCKASGYTFTGHDMHWVRQAPGQGLEWMGIINPSGGSTSYAQKFQGRVTMTRDTSTSTVYMELSSLRSEDTAVYYCARANSLRYYYGMDVWGQGTMVTVSS VL: DIQMTQSPSSLSASVGDRVTITCRASQSVSSWLAWYQQKPGKAPKLLIYAASSLQSGVPSRFSGSGSGTDFTLTISSLQPEDFATYYCQQGYTTPYTFGQGTKLEIK | 7.7
108 (antibody, V domains shown) VH: QVQLVQSGAEVKKPGASVKVSCKASGYIFSRYAIHWVRQAPGQGLEWMGWMNPISGNTDYAPNFQGRVTMTRDTSTSTVYMELSSLRSEDTAVYYCAKDGSQLAYLVEYFQHWGQGTLVTVSS VL: DIQMTQSPSSLSASVGDRVTITCRASQVITNNLAWYQQKPGKAPKLLIYDASTLETGVPSRFSGSGSGTDFTLTISSLQPEDFATYYCQQSYTFPYTFGQGTKVEIK | 72
120 (antibody, V domains shown) VH: QVQLVQSGAEVKKPGASVKVSCKASGYTFTSYDINWVRQAPGQGLEWMGMIDPSGGSTSYAQKFQGRVTMTRDTSTSTVYMELSSLRSEDTAVYYCAKDFGGGTRYDYWYFDLWGRGTLVTVSS VL: EIVMTQSPATLSVSPGERATLSCRASQSVSSRYLAWYQQKPGQAPRLLIYGASTRATGIPARFSGSGSGTEFTLTISSLQSEDFAVYYCQQYYTTPRTFGQGTRLEIK | 24
178 (antibody, V domains shown) VH: QVQLVQSGAEVKKPGASVKVSCKASGYTFTDYHMHWVRQAPGQGLEWMGWINPNSGGTNYAQKFQGRVTMTRDTSTSTVYMELSSLRSEDTAVYYCARDISSWYEITKFDPWGQGTLVTVSS VL: EIVMTQSPATLSVSPGERATLSCKASQSVSGTYLAWYQQKPGQAPRLLIYGASTRATGIPARFSGSGSGTEFTLTISSLQSEDFAVYYCLQTHSYPPTFGQGTKVEIK | 72
56 (antibody, V domains shown) VH: QVQLVQSGAEVKKPGASVKVSCKASGYTFTSYGISWVRQAPGQGLEWMGWISAYNGNTNYAQKLQGRVTMTRDTSTSTVYMELSSLRSEDTAVYYCARDIGPIDYWGQGTLVTVSS VL: DIQMTQSPSSLSASVGDRVTITCRASQGISSYLAWYQQKPGKAPKLLIYDASNLQSGVPSRFSGSGSGTDFTLTISSLQPEDFATYYCQQANSFPSTFGQGTKVEIK | 23
64 (antibody, V domains shown) VH: EVQLLESGGGLVQPGGSLRLSCAASGFPFSQHGMHWVRQAPGKGLEWVSAIDRSGSYIYYADSVKGRFTISRDNSKNTLYLQMNSLRAEDTAVYYCARDTYGGKVTYFDYWGQGTLVTVSS VL: DIQMTQSPSSLSASVGDRVTITCRASQGISSHLAWYQQKPGKAPKLLIYDASNLETGVPSRFSGSGSGTDFTLTISSLQPEDFATYYCQQTYSTPWTFGQGTKVEIK | 97
158 (antibody, V domains shown) VH: QVQLVQSGAEVKKPGASVKVSCKASGYTFTGYYMHWVRQAPGQGLEWMGWINPLNGGTNFAPKFQGRVTMTRDTSTSTVYMELSSLRSEDTAVYYCARDPGGSYSNDAFDIWGQGTLVTVSS VL: DIQMTQSPSSLSASVGDRVTITCRASQSISRYLNWYQQKPGKAPKLLIYDASNLESGVPSRFSGSGSGTDFTLTISSLQPEDFATYYCQQANSFPLTFGGGTKVDIK | 172
128 (antibody, V domains shown) VH: QVQLVQSGAEVKKPGASVKVSCKASGYTFTHYYMHWVRQAPGQGLEWMGIINPSSSSASYSQKFQGRVTMTRDTSTSTVYMELSSLRSEDTAVYYCARDGRYGSGSYPFDYWGQGTLVTVSS VL: DIQMTQSPSSLSASVGDRVTITCRASQNISRYLNWYQQKPGKAPKLLIYDASNLETGVPSRFSGSGSGTDFTLTISSLQPEDFATYYCQQANGFPPTFGQGTKLEIK | 57

molecular target: T1, SARS-CoV-2 Spike receptor binding …; assay: BLI; settings: both partners purified

Binder | binding result
mAb 236, full-length IgG (antibody, V domains shown) VH: QVQLVQSGAEVKKPGASVKVSCKASGGTFTSYGINWVRQAPGQGLEWMGWMNPNSGNTGYAQKFQGRVTMTRDTSTSTVYMELSSLRSEDTAVYYCASRGIQLLPRGMDVWGQGTTVTVSS VL: not shown | binds
mAb 52, full-length IgG (antibody, V domains shown, also called antibody 52) VH: QVQLVQSGAEVKKPGSSVKVSCKASGYTFTSYGISWVRQAPGQGLEWMGGIIPMFGTTNYAQKFQGRVTITADKSTSTAYMELSSLRSEDTAVYYCARDRGDTIDYWGQGTLVTVSS VL: DIQMTQSPSSLSASVGDRVTITCRASQGISNNLNWYQQKPGKAPKLLIYAASSLESGVPSRFSGSGSGTDFTLTISSLQPEDFATYYCQQGNGFPLTFGPGTKVDIK | binds
mAb 298, full-length IgG (antibody, V domains shown, also called IgG 298; antibody 298) VH: QVQLVQSGAEVKKPGASVKVSCKASGGTFSTYGISWVRQAPGQGLEWMGWISPNSGGTDLAQKFQGRVTMTRDTSTSTVYMELSSLRSEDTAVYYCASDPRDDIAGGYWGQGTLVTVSS VL: not shown | binds
mAb 80, full-length IgG (antibody, V domains shown) VH: QVQLVQSGAEVKKPGSSVKVSCKASGGTFNRYAFSWVRQAPGQGLEWMGGIIPIFGTANYAQKFQGRVTITADESTSTAYMELSSLRSEDTAVYYCARSTRELPEVVDWYFDLWGRGTLVTVSS VL: not shown | binds
mAb 82, full-length IgG (antibody, V domains shown) VH: QVQLVQSGAEVKKPGASVKVSCKASGGSFSTSAFYWVRQAPGQGLEWMGWINPYTGGTNYAQKFQGRVTMTRDTSTSTVYMELSSLRSEDTAVYYCARSRALYGSGSYFDYWGQGTLVTVSS VL: DIQMTQSPSSLSASVGDRVTITCRASQVISNYLAWYQQKPGKAPKLLIYDASNLETGVPSRFSGSGSGTDFTLTISSLQPEDFATYYCQQSFSPPPTFGQGTRLEIK | binds
mAb 324, full-length IgG (antibody, V domains shown) VH: QVQLVQSGAEVKKPGASVKVSCKASGGTFNNYGISWVRQAPGQGLEWMGWMNPNSGNTGYAQKFQGRVTMTRDTSTSTVYMELSSLRSEDTAVYYCARVGDYGDYIVSPFDLWGRGTLVTVSS VL: DIQMTQSPSSLSASVGDRVTITCRASQSITTYLNWYQQKPGKAPKLLIYDASNLETGVPSRFSGSGSGTDFTLTISSLQPEDFATYYCQQSYSTPPTFGQGTKVEIK | binds
mAb 46, full-length IgG (antibody, V domains shown, also called antibody 46) VH: EVQLLESGGGLVQPGRSLRLSCAASGFTFSSYAMSWVRQAPGKGLEWVSTIYSGGSTYYADSVKGRFTISRDNSKNTLYLQMNSLRAEDTAVYYCARGDSRDAFDIWGQGTMVTVSS VL: DIQMTQSPSSLSASVGDRVTITCRASQSISSWLAWYQQKPGKAPKLLIYDASNLETGVPSRFSGSGSGTDFTLTISSLQPEDFATYYCQQSYSTPFTFGPGTKVDIK | binds

molecular target: T1, SARS-CoV-2 Spike receptor binding …; assay: cryo-EM structure; settings: both partners purified

Binder | binding result
Fab 46 (Fab, V domains shown) VH: EVQLLESGGGLVQPGRSLRLSCAASGFTFSSYAMSWVRQAPGKGLEWVSTIYSGGSTYYADSVKGRFTISRDNSKNTLYLQMNSLRAEDTAVYYCARGDSRDAFDIWGQGTMVTVSS VL: DIQMTQSPSSLSASVGDRVTITCRASQSISSWLAWYQQKPGKAPKLLIYDASNLETGVPSRFSGSGSGTDFTLTISSLQPEDFATYYCQQSYSTPFTFGPGTKVDIK | binds

molecular target: T1, SARS-CoV-2 Spike receptor binding …; assay: crystal structure; settings: both partners purified

Binder | binding result
Fab 52 (Fab, V domains shown, also called 52 Fab) VH: QVQLVQSGAEVKKPGSSVKVSCKASGYTFTSYGISWVRQAPGQGLEWMGGIIPMFGTTNYAQKFQGRVTITADKSTSTAYMELSSLRSEDTAVYYCARDRGDTIDYWGQGTLVTVSS VL: DIQMTQSPSSLSASVGDRVTITCRASQGISNNLNWYQQKPGKAPKLLIYAASSLESGVPSRFSGSGSGTDFTLTISSLQPEDFATYYCQQGNGFPLTFGPGTKVDIK | binds
Fab 298 (Fab, V domains shown, also called 298 Fab) VH: QVQLVQSGAEVKKPGASVKVSCKASGGTFSTYGISWVRQAPGQGLEWMGWISPNSGGTDLAQKFQGRVTMTRDTSTSTVYMELSSLRSEDTAVYYCASDPRDDIAGGYWGQGTLVTVSS VL: not shown | binds
